B1: Nodal Modulator 1 (NOMO1), full length, with C-terminal FLAG tag (natural protein, human, UniProt Q15155 32-1222, looked up)
chain: SEDIVVGCGGFVKSDVEINYSLIEIKLYTKHGTLKYQTDCAPNNGYFMIPLYDKGDFILKIEPPLGWSFEPTTVELHVDGVSDICTKGGDINFVFTGFSVNGKVLSKGQPLGPAGVQVSLRNTGTEAKIQSTVTQPGGKFAFFKVLPGDYEILATHPTWALKEASTTVRVTNSNANAASPLIVAGYNVSGSVRSDGEPMKGVKFLLFSSLVTKEDVLGCNVSPVPGFQPQDESLVYLCYTVSREDGSFSFYSLPSGGYTVIPFYRGERITFDVAPSRLDFTVEHDSLKIEPVFHVMGFSVTGRVLNGPEGDGVPEAVVTLNNQIKVKTKADGSFRLENITTGTYTIHAQKEHLYFETVTIKIAPNTPQLADIIATGFSVCGQISIIRFPDTVKQMNKYKVVLSSQDKDKSLVTVETDAHGSFCFKAKPGTYKVQVMVPEAETRAGLTLKPQTFPLTVTNRPMMDVAFVQFLASVSGKVSCLDTCGDLLVTLQSLSRQGEKRSLQLSGKVNAMTFTFDNVLPGKYKISIMHEDWCWKNKSLEVEVLEDDMSAVEFRQTGYMLRCSLSHAITLEFYQDGNGRENVGIYNLSKGVNRFCLSKPGVYKVTPRSCHRFEQAFYTYDTSSPSILTLTAIRHHVLGTITTDKMMDVTVTIKSSIDSEPALVLGPLKSVQELRREQQLAEIEARRQEREKNGNEEGEERMTKPPVQEMVDELQGPFSYDFSYWARSGEKITVTPSSKELLFYPPSMEAVVSGESCPGKLIEIHGKAGLFLEGQIHPELEGVEIVISEKGASSPLITVFTDDKGAYSVGPLHSDLEYTVTSQKEGYVLTAVEGTIGDFKAYALAGVSFEIKAEDDQPLPGVLLSLSGGLFRSNLLTQDNGILTFSNLSPGQYYFKPMMKEFRFEPSSQMIEVQEGQNLKITITGYRTAYSCYGTVSSLNGEPEQGVAMEAVGQNDCSIYGEDTVTDEEGKFRLRGLLPGCVYHVQLKAEGNDHIERALPHHRVIEVGNNDIDDVNIIVFRQINQFDLSGNVITSSEYLPTLWVKLYKSENLDNPIQTVSLGQSLFFHFPPLLRDGENYVVLLDSTLPRSQYDYILPQVSFTAVGYHKHITLIFNPTRKLPEQDIAQGSYIALPLTLLVLLAGYNHDKLIPLLLQLTSRLQGVRALGQAASDNSGPEDAKRQAKKQKTRRT

Assays:
[1] = target: 2xFLAG-MBP-CYT (cytosolic domain of NOMO1 fused to maltose binding protein) (human); test: SEC
SEC-MALS = target: the molecule itself; test: SEC-MALS

| Molecule | stoichiometry N [1] | stoichiometry N (SEC-MALS) |
| --- | --- | --- |
| 2xFLAG-MBP-CYT (cytosolic domain of NOMO1 fused to maltose binding protein) (domain or fragment) | 2 | – |
| B1 | – | 2 |

Reference: publication doi:10.1101/2021.01.28.428001 (bioRxiv, 2021)
